Measured values as given in article PMC10786891, “Massively parallel profiling of RNA-targeting CRISPR-Cas13d”.

T1: EsCas13d, nuclease-dead (Eubacterium siraeum, UniProt B0MS50, R295A;H300A;R849A;H854A)
T1 sequence: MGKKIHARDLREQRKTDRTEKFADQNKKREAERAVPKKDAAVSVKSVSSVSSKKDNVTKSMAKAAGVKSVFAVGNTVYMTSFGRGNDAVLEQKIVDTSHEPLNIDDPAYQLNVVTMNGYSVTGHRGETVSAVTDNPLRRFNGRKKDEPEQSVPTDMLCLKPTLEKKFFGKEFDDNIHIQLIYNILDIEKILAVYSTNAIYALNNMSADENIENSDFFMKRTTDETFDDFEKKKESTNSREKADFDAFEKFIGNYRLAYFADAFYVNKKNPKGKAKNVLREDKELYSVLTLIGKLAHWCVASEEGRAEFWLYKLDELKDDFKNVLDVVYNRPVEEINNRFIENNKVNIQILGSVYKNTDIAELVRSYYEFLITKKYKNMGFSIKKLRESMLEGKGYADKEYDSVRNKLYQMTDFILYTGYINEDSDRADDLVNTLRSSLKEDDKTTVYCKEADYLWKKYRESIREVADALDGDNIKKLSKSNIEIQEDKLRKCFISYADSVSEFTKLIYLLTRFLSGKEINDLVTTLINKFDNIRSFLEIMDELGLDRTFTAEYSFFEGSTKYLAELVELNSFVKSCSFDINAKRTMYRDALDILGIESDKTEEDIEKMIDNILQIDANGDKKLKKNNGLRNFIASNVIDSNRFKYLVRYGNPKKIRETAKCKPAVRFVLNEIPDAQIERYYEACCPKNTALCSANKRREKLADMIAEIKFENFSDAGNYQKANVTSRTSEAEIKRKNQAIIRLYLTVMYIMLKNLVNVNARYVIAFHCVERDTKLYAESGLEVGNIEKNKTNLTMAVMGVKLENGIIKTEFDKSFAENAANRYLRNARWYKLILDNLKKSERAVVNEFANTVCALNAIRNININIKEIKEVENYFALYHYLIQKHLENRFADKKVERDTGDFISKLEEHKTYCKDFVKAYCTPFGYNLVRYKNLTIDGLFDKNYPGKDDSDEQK


Each binder was assayed against T1, EsCas13d, nuclease-dead (assay: crRNA (strand 1, pre-loaded); Mg2+; 40 mM Tris-HCl pH 7.5, 150 mM NaCl, 6 mM MgCl2, 1 mM DTT, 0.1% Tween-20, 0.2 mg/ml BSA; 25 C; 10 min per concentration, then washed). Conditions: tags: His6-TwinStrep-SUMO cleaved; N-terminal SNAP kept (SNAP-Surface 488); label: 3' end held by stalled T7 RNA polymerase.

Row | Binder | Kd
1 | target 2 MT 5'PFS CAU 3'PFS AAG (mixed) RNA 1: CACCCGUGCAAAAUUGCAGGGGUCUAAAACCUUCUCCAAAUUGUUUCAUCCU RNA 2: GGGAAUGGAUCCACAUCUACGAAUUCCAUAGGAUGAAACAAUUUGGAGAAGAAGAGAUCGGAAGAGCACACGU | 4.9 ± 0.7 nM
2 | target 2 MT 5'PFS CAU 3'PFS CAU (mixed) RNA 1: CACCCGUGCAAAAUUGCAGGGGUCUAAAACCUUCUCCAAAUUGUUUCAUCCU RNA 2: GGGAAUGGAUCCACAUCUACGAAUUCCAUAGGAUGAAACAAUUUGGAGAAGCAUAGAUCGGAAGAGCACACGU | 4.9 ± 0.9 nM
3 | target 2 MT 5'PFS UUC 3'PFS CUC (mixed) RNA 1: CACCCGUGCAAAAUUGCAGGGGUCUAAAACCUUCUCCAAAUUGUUUCAUCCU RNA 2: GGGAAUGGAUCCACAUCUACGAAUUCUUCAGGAUGAAACAAUUUGGAGAAGCUCAGAUCGGAAGAGCACACGU | ~32 nM
4 | target 1 C2U,U3A (mixed) RNA 1: CACCCGUGCAAAAAUGCAGGGGUCUAAAACUGAGCGGAUAACCUCUCUAUGG RNA 2: GGGAAUGGAUCCACAUCUACGAAUUCGUACCAUAGAGAGGUUAUCCGCAUACCGAGAUCGGAAGAGCACACGU | 16.1 ± 1.9 nM
5 | target 2 MT 5'PFS AGG 3'PFS AGG (mixed) RNA 1: CACCCGUGCAAAAUUGCAGGGGUCUAAAACCUUCUCCAAAUUGUUUCAUCCU RNA 2: GGGAAUGGAUCCACAUCUACGAAUUCAGGAGGAUGAAACAAUUUGGAGAAGAGGAGAUCGGAAGAGCACACGU | 5.2 ± 0.6 nM
6 | target 2 MT 5'PFS CGG 3'PFS UUU (mixed) RNA 1: CACCCGUGCAAAAUUGCAGGGGUCUAAAACCUUCUCCAAAUUGUUUCAUCCU RNA 2: GGGAAUGGAUCCACAUCUACGAAUUCCGGAGGAUGAAACAAUUUGGAGAAGUUUAGAUCGGAAGAGCACACGU | 15 ± 2.7 nM
7 | target 2 MT 5'PFS CGA 3'PFS CAA (mixed) RNA 1: CACCCGUGCAAAAUUGCAGGGGUCUAAAACCUUCUCCAAAUUGUUUCAUCCU RNA 2: GGGAAUGGAUCCACAUCUACGAAUUCCGAAGGAUGAAACAAUUUGGAGAAGCAAAGAUCGGAAGAGCACACGU | 6.5 ± 2 nM
8 | target 2 MT 5'PFS CGA 3'PFS CAC (mixed) RNA 1: CACCCGUGCAAAAUUGCAGGGGUCUAAAACCUUCUCCAAAUUGUUUCAUCCU RNA 2: GGGAAUGGAUCCACAUCUACGAAUUCCGAAGGAUGAAACAAUUUGGAGAAGCACAGAUCGGAAGAGCACACGU | 9 ± 4 nM
9 | target 2 MT 5'PFS UGG 3'PFS UCA (mixed) RNA 1: CACCCGUGCAAAAUUGCAGGGGUCUAAAACCUUCUCCAAAUUGUUUCAUCCU RNA 2: GGGAAUGGAUCCACAUCUACGAAUUCUGGAGGAUGAAACAAUUUGGAGAAGUCAAGAUCGGAAGAGCACACGU | 8.5 ± 0.9 nM
10 | target 2 MT 5'PFS UGA 3'PFS CUU (mixed) RNA 1: CACCCGUGCAAAAUUGCAGGGGUCUAAAACCUUCUCCAAAUUGUUUCAUCCU RNA 2: GGGAAUGGAUCCACAUCUACGAAUUCUGAAGGAUGAAACAAUUUGGAGAAGCUUAGAUCGGAAGAGCACACGU | 14.1 ± 3 nM
11 | target 2 MT 5'PFS AUG 3'PFS UAA (mixed) RNA 1: CACCCGUGCAAAAUUGCAGGGGUCUAAAACCUUCUCCAAAUUGUUUCAUCCU RNA 2: GGGAAUGGAUCCACAUCUACGAAUUCAUGAGGAUGAAACAAUUUGGAGAAGUAAAGAUCGGAAGAGCACACGU | 7.9 ± 1.3 nM
12 | target 2 MT 5'PFS AUG 3'PFS UAC (mixed) RNA 1: CACCCGUGCAAAAUUGCAGGGGUCUAAAACCUUCUCCAAAUUGUUUCAUCCU RNA 2: GGGAAUGGAUCCACAUCUACGAAUUCAUGAGGAUGAAACAAUUUGGAGAAGUACAGAUCGGAAGAGCACACGU | 12.6 ± 2.3 nM
13 | target 2 MT 5'PFS UAU 3'PFS AAG (mixed) RNA 1: CACCCGUGCAAAAUUGCAGGGGUCUAAAACCUUCUCCAAAUUGUUUCAUCCU RNA 2: GGGAAUGGAUCCACAUCUACGAAUUCUAUAGGAUGAAACAAUUUGGAGAAGAAGAGAUCGGAAGAGCACACGU | 20.9 ± 2.2 nM
14 | target 2 MT 5'PFS AUG 3'PFS UAU (mixed) RNA 1: CACCCGUGCAAAAUUGCAGGGGUCUAAAACCUUCUCCAAAUUGUUUCAUCCU RNA 2: GGGAAUGGAUCCACAUCUACGAAUUCAUGAGGAUGAAACAAUUUGGAGAAGUAUAGAUCGGAAGAGCACACGU | 15 ± 4 nM
15 | target 1 G5U,U8A (mixed) RNA 1: CACCCGUGCAAAAAUGCAGGGGUCUAAAACUGAGCGGAUAACCUCUCUAUGG RNA 2: GGGAAUGGAUCCACAUCUACGAAUUCGUACCAUAGAGAGGUUAACCUCUCACCGAGAUCGGAAGAGCACACGU | ~70 nM
16 | target 2 MT 5'PFS UAU 3'PFS AAC (mixed) RNA 1: CACCCGUGCAAAAUUGCAGGGGUCUAAAACCUUCUCCAAAUUGUUUCAUCCU RNA 2: GGGAAUGGAUCCACAUCUACGAAUUCUAUAGGAUGAAACAAUUUGGAGAAGAACAGAUCGGAAGAGCACACGU | 24 ± 2.8 nM
17 | target 2 MT 5'PFS AUU 3'PFS AAC (mixed) RNA 1: CACCCGUGCAAAAUUGCAGGGGUCUAAAACCUUCUCCAAAUUGUUUCAUCCU RNA 2: GGGAAUGGAUCCACAUCUACGAAUUCAUUAGGAUGAAACAAUUUGGAGAAGAACAGAUCGGAAGAGCACACGU | 7.3 ± 0.9 nM
18 | target 2 MT 5'PFS UAU 3'PFS AAA (mixed) RNA 1: CACCCGUGCAAAAUUGCAGGGGUCUAAAACCUUCUCCAAAUUGUUUCAUCCU RNA 2: GGGAAUGGAUCCACAUCUACGAAUUCUAUAGGAUGAAACAAUUUGGAGAAGAAAAGAUCGGAAGAGCACACGU | 18 ± 3.5 nM
19 | target 2 MT 5'PFS UGG 3'PFS UCU (mixed) RNA 1: CACCCGUGCAAAAUUGCAGGGGUCUAAAACCUUCUCCAAAUUGUUUCAUCCU RNA 2: GGGAAUGGAUCCACAUCUACGAAUUCUGGAGGAUGAAACAAUUUGGAGAAGUCUAGAUCGGAAGAGCACACGU | 41 ± 11 nM
20 | target 2 MT 5'PFS CUA 3'PFS ACC (mixed) RNA 1: CACCCGUGCAAAAUUGCAGGGGUCUAAAACCUUCUCCAAAUUGUUUCAUCCU RNA 2: GGGAAUGGAUCCACAUCUACGAAUUCCUAAGGAUGAAACAAUUUGGAGAAGACCAGAUCGGAAGAGCACACGU | 1.8 ± 0.4 nM
21 | target 2 MT 5'PFS AGG 3'PFS CUU (mixed) RNA 1: CACCCGUGCAAAAUUGCAGGGGUCUAAAACCUUCUCCAAAUUGUUUCAUCCU RNA 2: GGGAAUGGAUCCACAUCUACGAAUUCAGGAGGAUGAAACAAUUUGGAGAAGCUUAGAUCGGAAGAGCACACGU | 7.3 ± 0.9 nM
22 | target 2 MT 5'PFS GCA 3'PFS AGA (mixed) RNA 1: CACCCGUGCAAAAUUGCAGGGGUCUAAAACCUUCUCCAAAUUGUUUCAUCCU RNA 2: GGGAAUGGAUCCACAUCUACGAAUUCGCAAGGAUGAAACAAUUUGGAGAAGAGAAGAUCGGAAGAGCACACGU | 8.2 ± 1.7 nM
23 | target 2 MT 5'PFS GCA 3'PFS AGC (mixed) RNA 1: CACCCGUGCAAAAUUGCAGGGGUCUAAAACCUUCUCCAAAUUGUUUCAUCCU RNA 2: GGGAAUGGAUCCACAUCUACGAAUUCGCAAGGAUGAAACAAUUUGGAGAAGAGCAGAUCGGAAGAGCACACGU | 7.5 ± 1.6 nM
24 | target 2 MT 5'PFS GGU 3'PFS UAA (mixed) RNA 1: CACCCGUGCAAAAUUGCAGGGGUCUAAAACCUUCUCCAAAUUGUUUCAUCCU RNA 2: GGGAAUGGAUCCACAUCUACGAAUUCGGUAGGAUGAAACAAUUUGGAGAAGUAAAGAUCGGAAGAGCACACGU | 9.8 ± 1.1 nM
25 | target 2 MT 5'PFS CUG 3'PFS UAA (mixed) RNA 1: CACCCGUGCAAAAUUGCAGGGGUCUAAAACCUUCUCCAAAUUGUUUCAUCCU RNA 2: GGGAAUGGAUCCACAUCUACGAAUUCCUGAGGAUGAAACAAUUUGGAGAAGUAAAGAUCGGAAGAGCACACGU | 2.77 ± 0.2 nM
26 | target 1 insC 3' of 9,insU 3' of 1 (mixed) RNA 1: CACCCGUGCAAAAAUGCAGGGGUCUAAAACUGAGCGGAUAACCUCUCUAUGG RNA 2: GGGAAUGGAUCCACAUCUACGAAUUCGUACCAUAGAGAGGUUACUCCGCUCAUCCGAGAUCGGAAGAGCACACGU | 14.6 ± 0.7 nM
27 | target 2 MT 5'PFS AGG 3'PFS CUC (mixed) RNA 1: CACCCGUGCAAAAUUGCAGGGGUCUAAAACCUUCUCCAAAUUGUUUCAUCCU RNA 2: GGGAAUGGAUCCACAUCUACGAAUUCAGGAGGAUGAAACAAUUUGGAGAAGCUCAGAUCGGAAGAGCACACGU | 9.4 ± 1.7 nM
28 | target 2 MT 5'PFS UCU 3'PFS AUA (mixed) RNA 1: CACCCGUGCAAAAUUGCAGGGGUCUAAAACCUUCUCCAAAUUGUUUCAUCCU RNA 2: GGGAAUGGAUCCACAUCUACGAAUUCUCUAGGAUGAAACAAUUUGGAGAAGAUAAGAUCGGAAGAGCACACGU | 9.3 ± 1.1 nM
